Measured values: the RNAGym collection of RNA variant scans (doi:10.1073/pnas.2313332121)
Variants at the floor of the assay were thinned out.

B1: TPR 5TU (parent)
chain: GGAUCUUCUCGAUCUAACAAAAAAGACAAAUCUGCCACAAAGCUUGAGAGCAUCUUCGGAUGCAGAGGCGGCAGCCUUCGGUGGCGCGAUAGCGCCAACGUUCUCAACUAUGACACGCAAAACGCGUGCUCCGUUGAAUGGAGUUUAUCAUG

Variants of: B1
Assay: polymerase ribozyme fitness, log enrichment relative to wild type (log ratio); higher = more active; in vitro selection for triplet polymerase activity
How it was run: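 Mutant libraries were PCR-built and transcribed for each subunit of a heterodimeric triplet polymerase ribozyme and selected for one round in triplicate at −7 °C, frozen, before gel excision of extended constructs and streptavidin-bead capture. Input and output libraries were Illumina-sequenced, keeping genotypes with ≥10 input reads and ≥1 read per output. Fitness is a logarithmic ratio of genotype to wild-type enrichment, in base 2, using inverse-variance-weighted replicate averages.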

Row | Variant | polymerase ribozyme fitness (log ratio)
1 | GGAUCUUCUCGAUCUAACAAAAAAGACAAAUCUGCCACAAAGCUUGAGAGCAUCUUCGGAUGCAGAGGCGGCAGCCUUCGGUAGCGCGAUAGCGCCAACGUUCUCAACUAUGACACGCAAAACGCGUGCUCCGUUGAAUGCAGUUUAUCAUG [G83A G141C] | -1.87
2 | GGAUCUUCUCGAUCUAACAAAAAAGACAAAUCUGCCACAAAGCUUGAGAGCAUCUUCGGAUGCAGAGGCGGCAGCCUUCGGUCGCGCGAUAGCGCCAACGUUCUCACCUAUGACACGCAAAACGCGUGCUCCGUUGAAUGGAGUUUAUCAUG [G83C A107C] | ≤ -4.2
3 | GGAUCUUCUCGAUCUAACAAAAAAGACAAAUCUGCCACAAAGCUUGAGAGCAUCUUCGGAUGCAGAGGCGGCAGCCUUCGGUCGCGCGAUAGCGCCAACGUUCUCAACUAUGACACGCAAAACGCGUGCUCCGUUGAAUGGAGUUUAUCAUG [G83C] | -0.934
4 | GGAUCUUCUCGAUCUAACAAAAAAGACAAAUCUGCCACAAAGCUUGAGAGCAUCUUCGGAUGCAGAGGCGGCAGCCUUCGGUCGCGCGAUAGCGCAAACGUUCUCAACUAUGACACGCAAAACGCGUGCUCCGUUGAAUGGAGUUUAUCCUG [G83C C96A A150C] | -3.75
5 | GGAUCUUCUCGAUCUAACAAAAAAGACAAAUCUGCCACAAAGCUUGAGAGCAUCUUCGGAUGCAGAGGCGGCAGCCUUCGGUAGCGCGAUAGCGCCAACGUUCUCAACUAUGACACGCAAAACGCGUGCUCGCUUGAAUGGAGUUUAUCAUG [G83A C132G G133C] | -2.67
6 | GGAUCUUCUCGAUCUAACAAAAAAGACAAAUCUGCCACAAAGCUUGAGAGCAUCUUCGGAUGCAGAGGCGGCAGCCUUCGGUCGCGCGAUAGCUCCAACGUUCUCAACUAUGACACGCAAAACGCGUGCUCCGUUGAAUGGAGUUUAUCAUG [G83C G94U] | -2.72
7 | GGAUCUUCUCGAUCUAACAAAAAAGACAAAUCUGCCACAAAGCUUGAGAGCAUCUUCGGAUGCAGAGGCGGCAGCCUUCGGUCGCGCGAUAGCGCCAACGUUCUCAACUAUGACACGCAAAACGCGUGCUCCGUUGAAUGGAGUUUAUCGUG [G83C A150G] | -2.66
8 | GGAUCUUCUCGAUCUAACAAAAAAGACAAAUCUGCCACAAAGCUUGAGAGCAUCUUCGGAUGCAGAGGCGGCAGCCUUCGGUCGCGCGAUAGCGCCAGCGUUCUCAACUAUGACACGCAAAACGCGUGCUCCGUUGAAUGGAGUUUAUCAUG [G83C A98G] | -3.71
9 | GGAUCUUCUCGAUCUAACAAAAAAGACAAAUCUGCCACAAAGCUUGAGAGCAUCUUCGGAUGCAGAGGCGGCAGCCUUCGGUCGCGCGAUAGCGCCAACGUUCUCAACUAUGACACGCAAAACGCGUGCUCUGUUGAAUGGUGUUUAUCAUG [G83C C132U A142U] | ≤ -4.2
10 | GGAUCUUCUCGAUCUAACAAAAAAGACAAAUCUGCCACAAAGCUUGAGAGCAUCUUCGGAUGCAGAGGCGGCAGCCUUCGGUCGCGCCAUAGCGCCAACGUUCUCAACUAUGACACGCAAAACGCGUGCUCCGUUGAAUGGAGUUUAUCAUG [G83C G88C] | ≤ -4.2
11 | GGAUCUUCUCGAUCUAACAAAAAAGACAAAUCUGCCACAAAGCUUGAGAGCAUCUUCGGAUGCAGAGGCGGCAGCCUUCGGUAGCGCAAUGGCGCCAACGUUCUCAACUAUUACACGCAAAACGCGUGCUCCGUUGAAUUGACUUUAUCAUG [G83A G88A A91G G112U G140U G143C] | ≤ -4.2
12 | GGAUCUUCUCGAUCUAACAAAAAAGACAAAUCUGCCACAAAGCUUGAGAGCAUCUUCGGAUGCAGAGGCGGCAGCCUUCGGUCGCGCGAUAGCGCCAACGUUCUCAACUAUGACACACAAAACGCGUGCUCCGUUGAAUGGAGUUUAUCAUG [G83C G117A] | 0.556
13 | GGAUCUUCUCGAUCUAACAAAAAAGACAAAUCUGCCACAAAGCUUGAGAGCAUCUUCGGAUGCAGAGGCGGCAGCCUUCGGUCGCGCGAUAGCGCCAACGCUCUCAACUAUGACACGCGAAUCGCGUGCUCCGUCGAAUGGAGUAUAUCAUG [G83C U101C A119G A122U U135C U145A] | -3.51
14 | GGAUCUUCUCGAUCUAACAAAAAAGACAAAUCUGCCACAAAGCUUGAGAGCAUCUUCGGAUGCAGAGGCGGCAGCCUUCGGUCGCGCGAUAGCGCCAACGUUCUCAACUAUGACACGCAAAACGCGUGGUCCGUUGCAUGGAGUCUAUCAUG [G83C C129G A137C U145C] | ≤ -4.2
15 | GGAUCUUCUCGAUCUAACAAAAAAGACAAAUCUGCCACAAAGCUUGAGAGCAUCUUCGGAUGCAGAGGCGGCAGCCUUCGGUCGCGCGAUAGCGCCAACGUUCUCAACUGUGACACGCAAAACGCGUGCUCCGUUGAAUGGAGUUUAUCAUG [G83C A110G] | -3.65
16 | GGAUCUUCUCGAUCUAACAAAAAAGACAAAUCUGCCACAAAGCUUGAGAGCAUCUUCGGAUGCAGAGGCGGCAGCCUUCGGUCGCGCGAUAGCGCCAAAGUUCUCAACUAUGACACGCAAAACGCGUGCUCCAUUGAAUGGAGUUUAUCAUG [G83C C99A G133A] | -4.12
17 | GGAUCUUCUCGAUCUAACAAAAAAGACAAAUCUGCCACAAAGCUUGAGAGCAUCUUCGGAUGCAGAGGCGGCAGCCUUCGGUAGCGCGAUAGCGCCAACGUUCUCAACUAUGACACGCAAAACGCGUGCUCCGUUGAAUGGAGUUUAUCAGG [G83A U151G] | -3.97
18 | GGAUCUUCUCGAUCUAACAAAAAAGACAAAUCUGCCACAAAGCUUGAGAGCAUCUUCGGAUGCAGAGGCGGCAGCCUUCGGUCGCGCGAUAGCGCCGACGUUCUCAAGUAUGACACGCAAAACGCGUGCUCCGUUGAAUGGAGUUUAUCAUG [G83C A97G C108G] | ≤ -4.2
19 | GGAUCUUCUCGAUCUAACAAAAAAGACAAAUCUGCCACAAAGCUUGAGAGCAUCUUCGGAUGCAGAGGCGGCAGCCUUCGGUAGCGCGAUAGCGCCAACGUUCUCAACUAUGACACGCAAAACGCGUGCUCCGUGGAAUGAAGUUUAUCAUG [G83A U135G G141A] | -3.78

Row | Variant | polymerase ribozyme fitness (log ratio)
20 | GGAUCUUCUCGAUCUAACAAAAAAGACAAAUCUGCCACAAAGCUUGAGAGCAUCUUCGGAUGCAGAGGCGGCAGCCUUCGGUCGCGCGAUAUCGCCAACGUUCUCAACUAUGACACGCAAAACGCGUGCUCCGUUGGAUGGAGUUUAUCAUG [G83C G92U A137G] | -3.45
21 | GGAUCUUCUCGAUCUAACAAAAAAGACAAAUCUGCCACAAAGCUUGAGAGCAUCUUCGGAUGCAGAGGCGGCAGCCUUCGGUCGCGCGAUAGCGCUAACGUUCUCAAGUAUGACACGCAAAACGCGUGCUCCGUUGAAUGGAUUUUAUCAUG [G83C C96U C108G G143U] | ≤ -4.2
22 | GGAUCUUCUCGAUCUAACAAAAAAGACAAAUCUGCCACAAAGCUUGAGAGCAUCUUCGGAUGCAGAGGCGGCAGCCUUCGGUCGCGCGAUAGCGCCAACGUUCUCAACUAUGACACGCAAAACGCGUGCUCCGUUGAAUGGAGUUUUUCAUG [G83C A147U] | 0.501
23 | GGAUCUUCUCGAUCUAACAAAAAAGACAAAUCUGCCACAAAGCUUGAGAGCAUCUUCGGAUGCAGAGGCGGCAGCCUUCGGUCGCGCGAUAGCGCCAACGUUCUGAACUAUGACACGCAAAACGCGUGCUCCGUUGAAUGGAGUUUAUCAUG [G83C C105G] | -2.69
24 | GGAUCUUCUCGAUCUAACAAAAAAGACAAAUCUGCCACAAAGCUUGAGAGCAUCUUCGGAUGCAGAGGCGGCAGCCUUCGGUCGCGCGAUAGCGUCAACGUUCUCAACUAUGACACGCAAAACGCAUGCUCCGUUGAAUGGAGUUUAUCAUG [G83C C95U G126A] | -2.05
25 | GGAUCUUCUCGAUCUAACAAAAAAGACAAAUCUGCCACAAAGCUUGAGAGCAUCUUCGGAUGCAGAGGCGGCAGCCUUCGGUCGCGCGAUAGCGCCAACGUUCGCAACUAUGACAUGCAAAACGCGUGCUCCGUUGAAUGGAGUUUAUCAUG [G83C U104G C116U] | -1.3
26 | GGAUCUUCUCGAUCUAACAAAAAAGACAAAUCUGCCACAAAGCUUGAGAGCAUCUUCGGAUGCAGAGGCGGCAGCCUUCGGUAGCGCUAUAGCGCCAACGUUCUCAACUAGGACACGCAAAACGCGUGCUCCGUAGAAUGGAGUUUAUCAUG [G83A G88U U111G U135A] | ≤ -4.2
27 | GGAUCUUCUCGAUCUAACAAAAAAGACAAAUCUGCCACAAAGCUUGAGAGCAUCUUCGGAUGCAGAGGCGGCAGCCUUCGGUAGCGCGAUAGCGCCAACGUUCUCAACUAUGACACGCAAAACGCGUGCUCCGUCGAAUGGAGUUUAUCAUG [G83A U135C] | -2.09
28 | GGAUCUUCUCGAUCUAACAAAAAAGACAAAUCUGCCACAAAGCUUGAGAGCAUCUUCGGAUGCAGAGGCGGCAGCCUUCGGUCGCGCGAUAGCACCAUCGUUCUCAACUAUGACACGCAAAACGUGUGCUCCGUUGAAUGGAGUUUAUCAUG [G83C G94A A98U C125U] | -1.82
29 | GGAUCUUCUCGAUCUAACAAAAAAGACAAAUCUGCCACAAAGCUUGAGAGCAUCUUCGGAUGCAGAGGCGGCAGCCUUCGGUAGCGCGAUAGCGCCAACGUUCGCAACUAUGACACGCAGAACGCGUGCUCCGUUGAAUGGAGUUUAUCAUG [G83A U104G A120G] | -1.21
30 | GGAUCUUCUCGAUCUAACAAAAAAGACAAAUCUGCCACAAAGCUUGAGAGCAUCUUCGGAUGCAGAGGCGGCAGCCUUCGGUCGCGCGAUAGCGCCAACGUUCUCAACUAUGACACGCAAAACGCGUGCUCGGUUGAAUGGAGUUUAUCAUG [G83C C132G] | ≤ -4.2
31 | GGAUCUUCUCGAUCUAACAAAAAAGACAAAUCUGCCACAAAGCUUGAGAGCAUCUUCGGAUGCAGAGGCGGCAGCCUUCGGUCGCGCGAUAGCGCCAACGUUCUCAACUAUGACACGCAAAACGCGUGCUCCGUUUAAUGGAGUUUAUCAUG [G83C G136U] | -2.46
32 | GGAUCUUCUCGAUCUAACAAAAAAGACAAAUCUGCCACAAAGCUUGAGAGCAUCUUCGGAUGCAGAGGCGGCAGCCUUCGGUCGCGCGAUAGCGCCAACGUUCUCAACUAUGCCACGCAAAACGCGUGCUCCGUUGAAUGGAGUUUAUCAUG [G83C A113C] | -3.35
33 | GGAUCUUCUCGAUCUAACAAAAAAGACAAAUCUGCCACAAAGCUUGAGAGCAUCUUCGGAUGCAGAGGCGGCAGCCUUCGGUAGCGCGACAGCGCCAACGUUCUCAACUAUGACACGCAAAACGCGUGCUCCGUUGAAUGGAGUUUAUCAUG [G83A U90C] | -3.51
34 | GGAUCUUCUCGAUCUAACAAAAAAGACAAAUCUGCCACAAAGCUUGAGAGCAUCUUCGGAUGCAGAGGCGGCAGCCUUCGGUCGCGCGAUAGCGCCAACGUUCUCAACUAUGACACGCAAAACGCGUACUCCGUUGAAUGGAGUUUAUCAUG [G83C G128A] | -3.88
35 | GGAUCUUCUCGAUCUAACAAAAAAGACAAAUCUGCCACAAAGCUUGAGAGCAUCUUCGGAUGCAGAGGCGGCAGCCUUCGGUCGCGCGAUAGCGCCAACGUUCGCAACUAUGACACGCAAAACGCGUGCUCCGUUGAAUGGAGUUUAUCAUG [G83C U104G] | -2.14
36 | GGAUCUUCUCGAUCUAACAAAAAAGACAAAUCUGCCACAAAGCUUGAGAGCAUCUUCGGAUGCAGAGGCGGCAGCCUUCGGUAGCGCGAUAGCGCCAACGUUCUCAACUAUGACACGCAAAACCCGUGCUCCGUUGAAUGGAGUUUAUCAUG [G83A G124C] | -2.64
37 | GGAUCUUCUCGAUCUAACAAAAAAGACAAAUCUGCCACAAAGCUUGAGAGCAUCUUCGGAUGCAGAGGCGGCAGCCUUCGGUAGCGCGAUAUCGCCAACGUUCUCAACUAUGACACGGAAAACGCGUGCUCCGUUGAAUGGAGUUUAUCAUG [G83A G92U C118G] | -1.41
38 | GGAUCUUCUCGAUCUAACAAAAAAGACAAAUCUGCCACAAAGCUUGAGAGCAUCUUCGGAUGCAGAGGCGGCAGCCUUCGGUAGCGCGAUAGCGCCAACGUUCUCAACUAUGACACGCAAAACGCGUGCUCCGAUGAAUGGAGUUUAUCAUG [G83A U134A] | -2.04
